Values quoted from earlier work as cited in article PMC4746476.
pKd: −log10 of the molar value.

Molecular target: CCL21 (Homo sapiens) (UniProt O00585)
UniProt O00585, sequence (O00585 24-134): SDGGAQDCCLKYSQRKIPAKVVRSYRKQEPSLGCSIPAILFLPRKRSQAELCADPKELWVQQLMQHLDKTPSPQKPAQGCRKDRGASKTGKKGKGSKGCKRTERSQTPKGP

For CCR7 (from UniProt P32248), the pKd is listed as 8.00.
